# Test results published in US6207419A, “Thrombin inhibitory agents and methods of using same” (The University of North Carolina at Chapel Hill, priority 1999, dated 2001).
# Positions count from the first letter of the chain named. In names and notes the source's numbering stands.
# B1: wt-rHCII: Human wild type recombinant heparin cofactor II expressed in the baculovirus expression system (protein, UniProt P05546 20-499, looked up)
# Heparin cofactor 2: GSKGPLDQLEKGGETAQSADPQWEQLNNKNLSMPLLPADFHKENTVTNDWIPEGEEDDDYLDLEKIFSEDDDYIDIVDSLSVSPTDSDVSAGNILQLFHGKSRIQRLNILNAKFAFNLYRVLKDQVNTFDNIFIAPVGISTAMGMISLGLKGETHEQVHSILHFKDFVNASSKYEITTIHNLFRKLTHRLFRRNFGYTLRSVNDLYIQKQFPILLDFKTKVREYYFAEAQIADFSDPAFISKTNNHIMKLTKGLIKDALENIDPATQMMILNCIYFKGSWVNKFPVEMTHNHNFRLNEREVVKVSMMQTKGNFLAANDQELDCDILQLEYVGGISMLIVVPHKMSGMKTLEAQLTPRVVERWQKSMTNRTREVLLPKFKLEKNYNLVESLKLMGIRMLFDKNGNMAGISDQRIAIDLFKHQGTITVNEEGTQATTVTTVGFMPLSTQVRFTVDRPFLFLIYEHRTSCLLFMGRVANPSRS
# B2: rHCII-L444R-CHis6: HCII mutant that contains both L444R and a hexahistidine carboxyl tag (protein, UniProt P05546 20-499, looked up, variant L444R)
# Heparin cofactor 2: B1 Heparin cofactor 2 with L444R
# modifications: C-terminal His6 tag
# B3: rHCII-CHis5 Pro: Recombinant HCII mutant with a His5 Pro carboxyl-terminal tag; SEQ ID NO:7 (protein)
# chain: MKHSLNALLIFLIITSAWGGSKGPLDQLEKGGETAQSADPQWEQLNNKNLSMPLLPADFHKENTVTNDWIPEGEEDDDYLDLEKIFSEDDDYIDIVDSLSVSPTDSDVSAGNILQLFHGKSRIQRLNILNAKFAFNLYRVLKDQVNTFDNIFIAPVGISTAMGMISLGLKGETHEQVHSILHFKDFVNASSKYEITTIHNLFRKLTHRLFRRNFGYTLRSVNDLYIQKQFPILLDFRTKVREYYFAEAQIADFSDPAFISKTNNHIMKLTKGLIKDALENIDPATQMMILNCIYFKGSWVNKFPVEMTHNHNFRLNEREVVKVSMMQTKGNFLAANDQELDCDILQLEYVGGISMLIVVPHKMSGMKTLEAQLTPRVVERWQKSMTNRTREVLLPKFKLEKNYNLVESLKLMGIRMLFDKNGNMAGISDQRIAIDLFKHQGTITVNEEGTQATTVTTVGFMPLSTQVRFTVDRPFLFLIYEHRTSCLLFMGRVANPSRSHHHHHP
# modifications: His5 Pro C-terminal tag
# Columns and labels:
# thrombin [1] = test: Plasma-based thrombin inhibition assay; assay type: biochemical, human; conditions: 10 nM serpin
# Experimental: The assay to evaluate rHCII (wt and rHCII-CHis6) in plasma was designed based on previously published methods (Tollefsen, D. M., and Pestka, C. A. (1985) Blood 66(4), 769-774; Griffith, M. J., Carraway, T., White, G. C., and Dombrose, F. A. (1983) Blood 61(1), 111-118). All assays were performed at room temperature in 96-well microtiter plates previously coated with 2 mg/mL BSA. This assay was performed using normal hemostasis reference plasma (REF), human antithrombin III-deficient plasma (DEF), or a 50:50 mixture of these plasmas (REF/DEF). Within the assay, 10 nM rHCII or rHCII-CHis6 was incubated for 15 sec with I nM thrombin and 1 μg/mL heparin or 50 μg/mL dermatan sulfate, in the presence of a 1:100 dilution of plasma. Residual thrombin activity was measured with 300 μM GPA and 2 mg/mL pB. Substrate cleavage was measured by color development at […] on a Vmax Kinetic Microplate Reader. Second order rate constants were measured at least in triplicate on two recombinant protein preparations as described in Example 4.
# α-thrombin = target: T1, α-thrombin (Homo sapiens, UniProt P00734); test: Effect of hirugen on thrombin inhibition in the absence of glycosaminoglycan; assay type: biochemical; conditions: for rate constant of inhibition (k2) in the absence of peptide: no hirugen, no control peptide, FIG. 5
# T1 construct: Human α-thrombin, HCII, and ATIII were purified in our laboratory from plasma; from tissue; host or cells: human plasma (purified in the authors' laboratory)
# Experimental: (§1) Residual thrombin activity was measured with 150 μM GlyProArg-NA and 1 mg/mL pB in the absence of glycosaminoglycan, 2 mg/mL pB in the presence of heparin and 4 mg/mL in the presence of dermatan sulfate. Residual factor Xa activity was measured with 500 μM Spectrozyme FXa and 2mg/mL pB in the presence or absence of glycosaminoglycan. Residual chymotrypsin activity was measured with 150 μM AlaAlaProPhe-NA and residual trypsin activity was measured with 150 μM GlyProArg-NA.
# (§2) Assays were performed at least in triplicate on two or more recombinant protein preparations.
# [2] = Heparin-Sepharose affinity chromatography; assay type: binding; conditions: NaCl gradient, 20 mM Hepes pH 7.4
# Experimental: 100 μL of each fraction was aliquoted onto a 96-well microtiter plate and ELISA was performed. The peak elution ionic strength was determined by plotting 405 nm color development and NaCl concentration against the fraction number. All samples were run at least in triplicate using two or more protein preparations. Recombinant ATIII samples were run similarly to the HCII samples, except the elution gradient was run from 50 mM to 2 M NaCl.
# [3] = target: T2, plasma purified α-thrombin (Homo sapiens, UniProt P00734); test: Thrombin inhibition in the presence of glycosaminoglycans (heparin or dermatan sulfate); assay type: biochemical; conditions: for maximal rate of thrombin inhibition in the presence of dermatan sulfate: dermatan sulfate at optimal concentration; for maximal rate of thrombin inhibition in the presence of heparin: heparin at optimal concentration
# T2 construct: Human α-thrombin, HCII, and ATIII were purified in our laboratory from plasma; from tissue; host or cells: human plasma (purified in the authors' laboratory)
# Experimental: (§3) Protease inhibition rates were determined as described previously (Rogers, S. J., Pratt, C. W., Whinna, H. C., and Church, F. C. (1992) J. Biol. Chem. 267(6), 3613-3617; Whinna, H. C., Choi, H. U., Rosenberg, L. C., and Church, F. C. (1993) J. Biol. Chem. 268, 3920-3924; Ciaccia, A. V., Cunningham, E. L., and Church, F. C. (1995) Protein Express. Purific. 6, 806-812; Ciaccia, A. V., Willemze, A. J., and Church, F. C. (1997) J. Biol. Chem. 272(2), 888-893). All assays were performed at room temperature in 96-well microtiter plates previously coated with 2 mg/mL BSA.
# In the presence of glycosaminoglycans, 5 nM rHCII (wt, CHis6, CHis5 Pro, L444R, or L444R-CHis6) was incubated with 0.5 nM thrombin and 0-1 mg/mL heparin or 0-4 mg/mL dermatan sulfate or 10 nM rATIII (wt or CHis6) was incubated with 1 nM thrombin or factor Xa and 0-1 mg/mL heparin in the presence of 2 mg/mL BSA in HNPN, pH 7.4.
# as §1, with “GlyProArg-NA. Substrate cleavage was measured by color development at […] on a Vmax Kinetic Microplate Reader (Molecular Devices).” for “GlyProArg-NA.”
# (§4) Assays were performed at least in triplicate on two or more recombinant protein preparations. All inhibition studies were measured under pseudo-first order conditions where inhibitor [I] is at least ten-fold higher than enzyme (protease) [E], and second-order rate constants were calculated as described previously (Ciaccia, A. V., Cunningham, E. L., and Church, F. C. (1995) Protein Express. Purific. 6, 806-812; Ciaccia, A. V., Willemze, A. J., and Church, F. C. (1997) J. Biol. Chem. 272(2), 888-893).
# chymotrypsin = test: Chymotrypsin inhibition in the absence of glycosaminoglycan; assay type: biochemical; conditions: pH 7.4, mean ± S.D.
# Experimental: as §3
# In the absence of glycosaminoglycan, 50-100 nM rHCII (wt, CHis6, CHis5 Pro, L444R, or L444R-CHis6) or rATIII (wt or CHis6) was incubated with 1 nM thrombin, 0.5 nM Factor Xa, 2 nM chymotrypsin, or 5 nM trypsin, in the presence of 1 mg/mL Polybrene (pB) (for thrombin and Factor Xa) and 2 mg/mL BSA in HNPN, pH 7.4.
# as §1, with “GlyProArg-NA. Substrate cleavage was measured by color development at […] on a Vmax Kinetic Microplate Reader (Molecular Devices).” for “GlyProArg-NA.”
# as §4
# thrombin [4] = test: Thrombin inhibition in the absence of glycosaminoglycan; assay type: biochemical, human
# Experimental: All assays were performed at room temperature in 96-well microtiter plates previously coated with 2 mg/mL BSA.
# as §1, §2
# [5] = test system: plasma-purified α-thrombin; test: Thrombin inhibition with heparin before and after carboxypeptidase A digest; assay type: biochemical, human; conditions: 2 hr, room temperature, FIG. 3
# Experimental: Forty ng of CPA was combined with approximately 1 μg of recombinant protein and incubated at room temperature. Following a 2-hr incubation at room temperature, 2 mM EDTA was added to quench CPA activity. Controls were run in which EDTA was added to the reaction prior to the addition of CPA. CPA digested proteins were then assayed according to previously mentioned procedures.
# [6] = hirugen 20 μM, absence of glycosaminoglycan
Molecule,rate constant of inhibition (k2) in the absence of peptide (α-thrombin) [M⁻¹ s⁻¹],"Heparin-Sepharose [NaCl], peak elution concentration [2] [mM]",dermatan sulfate concentration at maximal rate of thrombin inhibition [3],maximal rate of thrombin inhibition in the presence of dermatan sulfate [3],heparin concentration at maximal rate of thrombin inhibition [3],maximal rate of thrombin inhibition in the presence of heparin [3],"change of heparin-dependent thrombin inhibition after CPA digest, in words [5]",rate of thrombin inhibition in the absence of glycosaminoglycan (thrombin [4]),also measured
B1,253,350,approximately 500 μg/mL,1.52±0.31×10^9 M^-1 min^-1,50 to 100 µg/mL,9.29±2.8×10^8 M^-1 min^-1,do not drastically change,–,"Inhibition Rate k2 × 10^8 (M^-1 min^-1), thrombin in plasma (thrombin [1]; Dermatan Sulfate (50 μg/mL), 50:50 Mixture (REF/DEF) plasma 1:100): 5.8 ± .24 × 10^8 (M^-1 min^-1); Inhibition Rate k2 × 10^8 (M^-1 min^-1), thrombin in plasma (thrombin [1]; Dermatan Sulfate (50 μg/mL), ATIII Deficient (DEF) plasma 1:100): 6.5 ± .50 × 10^8 (M^-1 min^-1); Inhibition Rate k2 × 10^8 (M^-1 min^-1), thrombin in plasma (thrombin [1]; Dermatan Sulfate (50 μg/mL), Normal Reference (REF) plasma 1:100): 5.7 ± .45 × 10^8 (M^-1 min^-1); Inhibition Rate k2 × 10^8 (M^-1 min^-1), thrombin in plasma (thrombin [1]; Heparin (1 μg/mL), 50:50 Mixture (REF/DEF) plasma 1:100): 1.9 ± .050 × 10^8 (M^-1 min^-1); Inhibition Rate k2 × 10^8 (M^-1 min^-1), thrombin in plasma (thrombin [1]; Heparin (1 μg/mL), ATIII Deficient (DEF) plasma 1:100): .26 ± .050 × 10^8 (M^-1 min^-1); Inhibition Rate k2 × 10^8 (M^-1 min^-1), thrombin in plasma (thrombin [1]; Heparin (1 μg/mL), Normal Reference (REF) plasma 1:100): 22 ± .17 × 10^8 (M^-1 min^-1); reduction of rate of thrombin inhibition by hirugen (α-thrombin; [6]): > 50%; average dermatan sulfate concentration at which the maximal rate was measured (in parentheses), thrombin ([3]; Thrombin + dermatan sulfate, unit not printed in table (text b157: μg/mL)): 500; average heparin concentration at which the maximal rate was measured (in parentheses), thrombin ([3]; Thrombin + heparin, unit not printed in table (text b156: μg/mL)): 50; Inhibition Rate k2 × 10^8 (M^-1 min^-1), Thrombin + dermatan sulfate ([3]; maximal rate of dermatan sulfate curve, mean ± S.D.): 15.2 ± 3.1 × 10^8 (M^-1 min^-1); Inhibition Rate k2 × 10^8 (M^-1 min^-1), Thrombin + heparin ([3]; maximal rate of heparin curve, mean ± S.D.): 9.29 ± 2.8 × 10^8 (M^-1 min^-1); k2 × 10^4 (M^-1 min^-1), chymotrypsin (chymotrypsin): 71.0 ± 12 × 10^4 (M^-1 min^-1); k2 × 10^4 (M^-1 min^-1), thrombin (thrombin [4]; pH 7.4, mean ± S.D.): 1.30 ± .19 × 10^4 (M^-1 min^-1)"
B2,35300,600,~ 200 μg/mL,8.81±0.20×10^8 M^-1 min^-1,~ 20 μg/mL,2.47±0.35×10^8 M^-1 min^-1,–,1.59±0.26×10^6 M^-1 min^-1,"effect of hirugen on thrombin inhibition, in words (α-thrombin; [6]): less of an effect; rate of thrombin inhibition relative to rHCII-CHis6 (thrombin [4]): ~ 100 fold; rate of thrombin inhibition compared in words with the untagged serpin (thrombin [4]; comparator rHCII-L444R or wt-rATIII as in sentence): not significantly different"
B3,–,–,–,–,10 µg/mL,1.87±0.37×10^9 M^-1 min^-1,does not change appreciably,32000 M⁻¹ min⁻¹,rate of thrombin inhibition relative to wt-rHCII (thrombin [4]): ~ 2 fold
